In IntAct's records for PubMed 24240280:

Columns and labels:
[1] = biological target: T1, sv2c_human SV2C (UniProt Q496J9)
T1 sequence: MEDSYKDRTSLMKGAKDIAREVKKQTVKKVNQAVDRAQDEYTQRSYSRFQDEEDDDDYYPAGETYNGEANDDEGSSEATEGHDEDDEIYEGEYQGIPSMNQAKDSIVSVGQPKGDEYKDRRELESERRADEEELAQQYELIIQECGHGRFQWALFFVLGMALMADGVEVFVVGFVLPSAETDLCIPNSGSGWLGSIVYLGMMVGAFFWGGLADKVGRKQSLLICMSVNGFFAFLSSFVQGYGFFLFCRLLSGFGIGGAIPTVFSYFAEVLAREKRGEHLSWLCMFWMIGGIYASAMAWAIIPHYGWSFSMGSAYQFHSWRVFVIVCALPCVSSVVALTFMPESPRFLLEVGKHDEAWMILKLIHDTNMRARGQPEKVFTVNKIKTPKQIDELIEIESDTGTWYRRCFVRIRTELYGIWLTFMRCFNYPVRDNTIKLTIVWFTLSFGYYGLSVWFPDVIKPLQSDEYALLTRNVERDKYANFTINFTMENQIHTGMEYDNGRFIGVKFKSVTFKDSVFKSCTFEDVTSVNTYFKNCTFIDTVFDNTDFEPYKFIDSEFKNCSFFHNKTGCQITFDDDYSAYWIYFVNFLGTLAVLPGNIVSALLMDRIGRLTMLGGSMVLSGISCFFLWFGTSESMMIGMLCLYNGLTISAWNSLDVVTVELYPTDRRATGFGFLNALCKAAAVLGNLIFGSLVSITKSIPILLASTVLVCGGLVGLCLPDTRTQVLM

[2] = biological target: T1, sv2c_human SV2C; remark: listed apart in the source

Substance | effect of a mutation on the interaction [1] | effect of a mutation on the interaction [2]
Botulinum neurotoxin type A (Clostridium botulinum) (from UniProt P0DPI0) R1294A | decreasing interaction strength | –
Botulinum neurotoxin type A (Clostridium botulinum) (from UniProt P0DPI0) T1145A;T1146A | disrupting interaction strength | decreasing interaction strength
Botulinum neurotoxin type A (Clostridium botulinum) (from UniProt P0DPI0) R1156E | decreasing interaction strength | –
